# Experimental data reported in the DeepSol protein solubility set.
# Experiment: soluble on expression in E. coli; label from the status in PepcDB or PDB records
row,Sequence,soluble on expression in E. coli
1,MGSDKIHHHHHHMLERRHIARDISYSHSAETRPGRIMIRLMENTTGRLRLIKRAKGYDMEVASGRSFWDVIVERYGLSLDVVGGSLDAIPRDKPVILIANHPYGILDGLMMGHILSRTRCDFRMLAHQVFRKAEDLNKVILPIDFAETKEAMKVNLQTRKDALDYLGQGGAIGIFPGGTVSTASKPFAHPMDPGWRGFTARMVAKSDAVVVPLYFDGHTSRLFQIASHLHYTLRMGLLIKEFKKRVDTPVKVVIGEPIGRDVLDPLAKDSKAMMDFLRKATYELSPTPLKSYDYGFEFEEKHRA,not soluble
2,MYVALWYKHGKPIHGRSWNNGGVVECSFPYKEAELTTKQQLEGQIQVLQYVGDHNNQGFWYEWIKYKDRIEKIDDKHQLVRCGDSFPIFWKRKEGNLLGYVDNKTEEGWFSFNGKVIKQVGPQLNDMYIITRNCVGGPPYCECENCPKLPPPPPIPPPGPPPPRVMHDEWIDIREGDPWPTRKLVKALDKSLDTLPGVSADQYVALWYMQGEPVMGRVWNEGGKVAANFSWFNNEYCKNVGSIQLLVRLGPHVVGYEYGWIPFPEAANFDAGKIWKPVHVNNHKGDISVGVVNLPGGKQILAKVDVRNESYGYGYQGKEHSARGPACASSVTVLCRKALPGYQLDG,not soluble
3,MGHHHHHHSHMAVEDEGLRVFQSVKIKIGEAKNLPSYPGPSKMRDCYCTVNLDQEEVFRTKIVEKSLCPFYGEDFYCEIPRSFRHLSFYIFDRDVFRRDSIIGKVAIQKEDLQKYHNRDTWFQLQHVDADSEVQGKVHLELRLSEVITDTGVVCHKLATRIVECQGLPIVNGQCDPYATVTLAGPFRSEAKKTKV,not soluble
4,MGKRVLIVDDAAFMRMMLKDIITKAGYEVAGEATNGREAVEKYKELKPDIVTMDITMPEMNGIDAIKEIMKIDPNAKIIVCSAMGQQAMVIEAIKAGAKDFIVKPFQPSRVVEALNKVSK,soluble
5,MVEIVGHRAFKARYPENTLLAFEKAYAAGADVIETDLQMTSDGMVVVNHDSDTGRMWDKNLVIGESTWEEVKRLRCKEDGSLAMMTLKEILTWAVCHPGAKLMLDIKFTNEKIIMIKTFVIMLEVKNDLKFWQERITWGLWLLDWYDFGIETGVLKDFKVIVISLSLDIASQFVKRSLTLNDPHYKLFGISVHFVSSWTSQFRLRLLPVLMKNDIKVYLWTVNKPIDFKYLCELPIHGAITDDPIKARKLCDGHTVAKKPTAEKKFVAPSLASVDGLRFHAFIKVYNILCTLLYSKWVHIKLCGWSIAYVIFLFLRTIHFL,soluble
6,GPGSMDVARTMRATAGGKAFAVVAAEQTAGRGTGGRTWTSPKGNLYMTVGVPQLGQPPCLKEELVPVLPLICGLACRRAVLEVLHLDGALAKASVAADAAKAVATKWPNDIIYNHKKIGGTLIESDGDYLIIGIGMNIAVAPQMTDAGREATMINTIAEDFGVKSCPPRDLANAIWCHLFDICSSPEWTRELVIESFDKVMDKSLKLHKRLPGGRDPEELTAVSLNSWGHLKVRHADGTVEDLSAEYLF,not soluble
7,MSIKKSPVYNVIAVPVEKVQANDYNPNVVAPPEMRLLELSIWEDGFTMPCVCYYDKEKDVYILVDGFHRYSVLKTSKRIFQRENGMLPIVVIEKDLSNRMSSTIRHNRARGTHN,soluble
8,ALMGGIVDVEGAQNSAEVEELARFAVDEHNKKENALLQFSRLVKAKQQVVSGIMHHLTVEVIEGGKKKVYEAKVWVQAWLNSKKLHEFSPI,soluble
9,GMKCNDKLAPFEVFDHVVNKKLSFRHVTMDDVDMLHSWMHEEHVIPYWKLNIPLVDYKKHLQTFLNDDHQTLMVGAINGVPMSYWESYWVKEDIIANYYPFEEHDQGIHLLIGPQEYLGQGLIYPLLLAIMQQKFQEPDTNTIVAEPDRRNKKMIHVFKKCGFQPVKEVELPDKIGLLMKCEQNVFEKRWSDWKMNKF,soluble
10,DVQLQASGGGLVQPGGSLRVSCAASGFTFSSYHMAWVRQAPGKGLEWVSTINPGDGSTYYADSVKGRFTISRDNAKNTLYLQMNSLKSEDTAVYYCAKYSGGALDAWGQGTQVTVSSQSEQKLISEEDLNHHHHH,soluble
11,MANTPGGGALIVGIEDKTGRIIGTELDIDWLRQGIFTRIDVAPDVVAKRVLGQRVLAIYVAAAAEPIEDTSDRLRWRVGDSCRPVDLEHHHHHH,not soluble
12,MAYKHILIAVDLSPESKVLVEKAVSMARPYNAKISLIHVDVNYSDLYTGLIDVNLGDMQKRISEETHHALTELSTNAGYPITETLSGSGDLGQVLVDAIKKYDMDLVVCGHHQDFWSKLMSSARQLINTVHVDMLIVPLRDEEE,not soluble
13,MDNTEDVIKEFMQFKVRMEGSVNGHYFEIEGEGEGKPYEGTQTAKLQVTKGGPLPFAWDILSPQFQYGSKAYVKHPADIPDYMKLSFPEGFTWERSMNFEDGGVVEVQQDSSLQDGTFIYKVKFKGVNFPADGPVMQKKTAGWEPSTEKLYPQDGVLKGEISHALKLKDGGHYTCDFKTVYKAKKPVQLPGNHYVDSKLDITNHNEDYTVVEQYEHAEARHSGSQ,soluble
14,MSLSDKDKRRLEYKELAKESKAKSKMLAASQGKGLVAKIAIGSALGNIIGNAMSKAAGGLLGFAKKAVEEKSKTNRAKLLNSAFFEKDERNTIMGTLKGMKGFERDLEKEEFLNQASVFKGTLRDLGMLNLTNLKKAVEFSAALKSSGAMSGEDAVKAVNSLLSGEGDELFDLLKKSGVGDKYIEDAKKAWQSGAEVDLESRITMLVEMFKDFKSFGITKKADTKEEIDSNLASAEQTLSNLTTTVLDPLLKFIKMVTGLSEGHHHHHH,soluble
15,MASTIAFPAMVKELRLSKNLTMEQLAEEVGKTKSTISKWEKGTRSPKIYEIEEIAKFFGVEPKKMMFGDNPTPTAPQVELIPSTLQKINSTSSQLEHKRQLNVLDYAETQLEQQNTVEEPQATYYTYNYYDHAASAGTGQYLNDVQVETIELPVDYDADFVIPVYGDSMEPKYHSGDYVFVKLSVELTDGDIGVFEYYGDAYIKQLLINDKGAFLHSLNQCGDYPDIPIDRDSDFRIIGEVMGSYRER,not soluble
16,MKITNPVLKGFNPDPSICRAGEDYYIAVSTFEWFPGVQIHHSKDLVNWHLVAHPLQRVSQLDMKGNPNSGGVWAPCLSYSDGKFWLIYTDVKVVDGAWKDCHNYLVTCETINGDWSEPIKLNSSGFDASLFHDTDGKKYLLNMLWDHRIDRHSFGGIVIQEYSDKEQKLIGKPKVIFEGTDRKLTEAPHLYHIGNYYYLLTAEGGTRYEHAATIARSANIEGPYEVHPDNPILTSWHDPGNPLQKCGHASIVQTHTDEWYLAHLTGRPIHPDDDSIFQQRGYCPLGRETAIQKLYWKDEWPYVVGGKEGSLEVDAPSIPETIFEATYPEVDEFEDSTLNINFQTLRIPFTNELGSLTQAPNHLRLFGHESLTSTFTQAFVARRWQSLHFEAETAVEFYPENFQQAAGLVNYYNTENWTALQVTHDEELGRILELTICDNFSFSQPLNNKIVIPREVKYVYLRVNIEKDKYYYFYSFNKEDWHKIDIALESKKLSDDYIRGGGFFTGAFVGMQCQDTGGNHIPADFRYFRYKEK,soluble
17,MATYRKSRAFAPEGFFECEGRGLEWLGAAHAQGGPRVVQVYGWGKDYLDIERVGSASPTPQAARAFGAALARMHDAGAKYFGSAPDGYNGTCYFGPLQDPVKMDTGEWTDPISYFADGRLRPMVNLGVKRGELDKRDVELTERVIEALPDLMGRAAADKPARIHGDLWSGNVMWTADSGQSEAVLIDPAAHGGHREEDLAMLHLFGMSYLSEITEGYQSVHPLKAGWQERITLWQLYPIAGHCVFFGGGYVNEYRSMCRSLLKLEHHHHHH,not soluble
18,MSLSQQQKQVQKLAMTQQLQQSIQILQFNTEELAAFVEAKALENPLIDLQVDTQYTTDFPITSRSYTNQDEENNYMNQIPDYHLSLFESLIDQIHLNYRDTYLRTLVLFLVEYIDVNGYLTISLEEAAVKTEASAIQMLDALTLLQQLDPAGVGARNLQECLMLQTERDDTAPNLAYILLEEEFDALVSRKWGPLAKKFGIELAEIQLIFDYIQTLSPAPGNIFDATEELYIRPDLTVRIKEDRIVVISNKAGRPTLNFQENYFKRMQETDDKEVQEYIKDKKNEFEWLERAVNQRGDTILRVGQEIVRRQEAFFLEADRPLKPMTLKEIADALSIHESTVSRAVNGKYLETTFGVFELRSFFSTSILSSEEDGEDVSTTMVKKQLQKLIDQEVKSKPLSDQKLVERLKDSGMEISRRTVAKYREALGIPSSSKRKRYEEGHHHHHH,soluble
19,MNNMSLSDIFERFDTSKDGKISWEEFRDAIHALSPSIPSEKLVEMFIQLDTNGDGQVDAAKFASCMDQTAQSSGGDVEKELKDAFKLYDINCDGKISANELHVVMTRLGEKCTVESCVGMVQAIDVDGDGYIRFVGV,soluble
20,MKLAKRVAALTPSATLEITAKAQALKAEGHDVIGLGAGEPDFNTPEHIMDAAHKAMLEGHTKYTPTGGLQALKQEIVKKFTRDQGIAYDPSEIIVCNGAKHALYTLFQVLLDEGDEVIIPTPYWVSYPEQVKLAGGKPVYVEGLEGNEYKITAEQLREAITEKTKAVIINSPSNPTGMIYSKEELQQLGEVCLEHDILIVSDEIYEKLIYGGAEYTSIAQLSNALKEQTLIINGVSKSHSMTGWRIGYAAGNKQLIKAMTNLASHSTSNPTSIAQYGAIAAYAGSQEPVETMRQAFEERLNIIYDKLIQIPGFTCIKPQGAFYLFPNVKEAVALSGYETVDEWAKALLEEEKVALVPGTGFGAPNNVRLSYATSLEQVEKALERIHTFMKSKVQA,not soluble
21,MGYLVSKHLALSLGSSKRGYILSPIMPPVVIVEDDGPGYPFDIYYSEGKRVLTIVHRANPEREVQDEYLHTLSLWLREMGVGRVILVGGLNMEFMPREEKHGYRWLANRHYKGPKLEAPTMEAGLGVVGPLALLYMYLDYLGVPAAMVLPYSVAERVDYEAAIRGLKVIGGSIIGVEIPTDEIEKMASMQREILETISRMIEGEEEKESGGIYM,not soluble
22,MSLPQPKKDKPDTPLRSDAQRNRERILAVATEELTHCANAPLSAIAKKAGVGQGTFYRNFPNREALVLEIYRYGMQQVAEAAPEMLATGEPDLALRQWMDRLAEFAMTKAGLADAIRLVTSAPGAPEKPRPTPLEDAAELLLRANHEAGTIRPGVTGDDFFLVLGGLWLIDPGENWQPRVTRFLDLVMDGLRAGAPGREGHHHHHH,soluble
23,MHHHHHHSSGVDLGTENLYFQSMSAQNNAKVAVLGASGGIGQPLSLLLKNSPLVSRLTLYDIAHTPGVAADLSHIETKAAVKGYLGPEQLPDCLKGCDVVVIPAGVPRKPGMTRDDLFNTNATIVATLTAACAQHCPEAMICVIANPVNSTIPITAEVFKKHGVYNPNKIFGVTTLDIVRANTFVAELKGLDPARVNVPVIGGHAGKTIIPLISQCTPKVDFPQDQLTALTGRIQEAGTEVVKAKAGAGSATLSMAYAGARFVFSLVDAMNGKEGVVECSFVKSQETECTYFSTPLLLGKKGIEKNLGIGKVSSFEEKMISDAIPELKASIKKGEDFVKTLK,soluble
24,MGSDKIHHHHHHMMRGAPMTLRPRLICLPPAGAGPSLFRSWVQNSESIFDVVPVALPGREAHFTKPLPRDIQSLADHVTNEIIGLLQAPYALFGYSMGAVVAYELLRHLSLRRLPLPDAFYILGSNAPDRVLEGREPIHSMTSEDFQQSLVEIGGTPDEILRDREAMALFEPVLRNDFRICETYEFTPPHLPVTFPVHVFVADADHLVSWKAAGAWENCIGQDITMHGIEGSHMLPPQAFAHFIGKLGQLWQTDQVQACAVSTRTA,not soluble
